Measured values reported in doi:10.1101/2024.11.01.621505.

Target: CCR9 ΔCT (human) (UniProt P51686)
UniProt P51686, sequence (P51686 1-334, stated change not applied): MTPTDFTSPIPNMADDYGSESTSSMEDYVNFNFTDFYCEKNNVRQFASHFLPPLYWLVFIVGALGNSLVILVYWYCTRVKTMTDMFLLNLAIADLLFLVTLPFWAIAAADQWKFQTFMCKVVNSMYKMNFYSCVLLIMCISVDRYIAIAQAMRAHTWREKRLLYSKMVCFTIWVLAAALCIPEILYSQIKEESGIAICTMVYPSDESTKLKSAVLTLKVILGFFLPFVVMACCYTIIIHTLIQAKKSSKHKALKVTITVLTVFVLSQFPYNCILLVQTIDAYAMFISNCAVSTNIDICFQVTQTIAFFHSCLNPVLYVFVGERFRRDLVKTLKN

G⍺i-Nluc (from UniProt P63096 1-354) (natural protein)
Gi activation: area over the G⍺i-Gβγ dissociation curve (AOC), against CCR9 WT: 6 fold
